In US12517114B2, “Primary gastrointestinal stromal tumor cell culture medium, culture method and application thereof” (PRECEDO PHARMACEUTICALS CO., LTD, priority 2021, dated 2026):

B1: fibroblast growth factor 10: receptor tyrosine kinase ligand, medium additive (R&D) (protein, UniProt O15520 38-208, looked up)
Fibroblast growth factor 10: QALGQDMVSPEATNSSSSSFSSPSSAGRHVRSYNHLQGDVRWRKLFSFTKYFLKIEKNGKVSGTKKENCPYSILEITSVEIGVVAVKAINSNYYLAMNKKGKLYGSKEFNNDCKLKERIEENGYNTYASFNWQHNGRQMYVALNGKGAPRRGQKTRRKNTSAHFLPMVVHS
B2: platelet-derived growth factor BB: receptor tyrosine kinase ligand, medium additive (R&D) (protein, UniProt P01127 82-190, looked up)
Platelet-derived growth …: SLGSLTIAEPAMIAECKTRTEVFEISRRLIDRTNANFLVWPPCVEVQRCSGCCNNRNVQCRPTQVQLRPVQVRKIEIVRKKPIFKKATVTLEDHLACKCETVAAARPVT

Tested on: primary gastrointestinal stromal tumor cells (GIST-1, GIST-2, GIST-3, GIST-4)
Test: Screening of factors added to the culture medium: cell count after 14 days of culture
Type: cell-based, human
Conditions: for Level of promoting cell proliferation: additive at the concentration of Table 1 in basic medium vs basic medium, 14 days, 2% oxygen, Collagen I coated plate, four patient samples
Method: Rat tail collagen type I (Collagen type I, manufactured by Corning Inc.) was diluted with ultrapure water in a ratio of 1:50 to prepare a collagen diluent. The collagen diluent was added 500 μl/well into a 24-well culture plate to completely cover the bottom of the culture plate wells. After standing in a incubator at 37° C. for 1 hour, the collagen diluent was removed to provide a culture plate coated with collagen.
First, a basic medium was prepared. To a commercial DMEM/F-12 medium, GlutaMAX-I (manufactured by Thermo Fisher […]) was added at a dilution ratio of 1:100, insulin-containing culture additive Insulin-Transferrin-Selenium-Ethanolamine (ITS-X, manufactured by Gibco) was added at a dilution ratio of 1:100, a ROCK kinase inhibitor Y27632 (manufactured by Sigma) was added at a final concentration of 10 µM, and commercial Primocin solution (manufactured by InvivoGen) (commercial product in concentration of 50 mg/ml) was added at a dilution ratio of 1:500, to obtain the basic medium.
Next, different types of additives (Table 1) were added to the basic medium to prepare culture mediums for gastrointestinal stromal tumor cells containing different components. The culture mediums with different components were added at a volume of 500 μl/well to 24-well plates coated with Collagen I, with 3 wells for per medium formulation. The GIST cells (GIST-1) isolated from GIST tissues in Section (1) of this example were inoculated in the 24-well culture plate coated with Collagen I at a cell density of 3×10^4/well, and were cultured under different medium formulations at 37° C., under 5% CO2 concentration and 2% oxygen concentration. The mediums were renewed every 3 days after the start of the culture. After 14 days of culture, cell counts were performed.
The tumor cells isolated from the other three gastrointestinal stromal tumor tissue samples were also cultured and counted in the same manner as above.

Molecule | Level of promoting cell proliferation | Effect on proliferation of primary gastrointestinal stromal tumor cells (in words) (additive in basic medium, in at least three cases)
B1 | + | promote the proliferation
B2 | + | –
